The results in this text go back to publication PMC5882645, “NMR Structure, Dynamics and Interactions of the Integrin β2 Cytoplasmic Tail with Filamin Domain IgFLNa21” (Scientific Reports, 2018).

No end group written: not given here.

Assay [1] has as its target T1, IgFLNa21 domain of filamin A (Gly2236-Ser2329) (UniProt P21333 2236-2329).
T1 construct: filamin A, Ig-like repeat 21 (IgFLNa21), residues Gly2236-Ser2329; The same range also stands as the C-terminal part of the hybrid chain m5 (cloned in pET14b); the rows on the hybrid use m1 for this domain; also called IgFLNa21 filamin; wild-type IgFLNa21; source: E. coli rosetta, synthetic gene in pET24a, 15N/13C-labelled, purified (Ni-NTA, size-exclusion chromatography)
T1 sequence (looked up): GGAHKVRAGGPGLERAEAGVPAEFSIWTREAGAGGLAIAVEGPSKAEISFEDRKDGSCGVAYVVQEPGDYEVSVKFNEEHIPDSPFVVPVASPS
As to the kind of experiment: NMR structure; solution structure of the hybrid chain (β2 CT 752-763 joined to IgFLNa21 by the linker …), 300 μM, 298 K; CYANA, refined by X-plor-NIH with explicit water. The note with it: both partners purified.

Assay [2] has as its target T1, IgFLNa21 domain of filamin A …. Description: NMR titration; 15N-1H HSQC of IgFLNa21 (100 μM) with sequential additions of peptide at 1:0, 1:1, 1:2 and 1:3 ratios; 298 K; 25 mM sodium phosphate, 5 mM NaCl, 2 mM DTT, 10% D2O, pH 6.5. To be noted: both partners purified.

B1: C-terminal filamin-binding region (P752-N763) of integrin β2 CT, as it stands in the hybrid IgFLNa21 (peptide)
chain: PLFKSATTTVMN
modifications: also: fused via GASGSGASGS linker to IgFLNa21 N-terminus
notes: also called β2 CT peptide; β2 CT part of hybrid IgFLNa21; source: E. coli rosetta, purified (Ni-NTA, size-exclusion chromatography) as the N-terminal part of the hybrid chain
For B1, the binding result in assay [1] is given as “binds”.

B2: Synthetic integrin full-length β2-CT (residues 724-769) (peptide, UniProt P05107 724-769, looked up)
chain: KALIHLSDLREYRRFEKEKLKSQWNNDNPLFKSATTTVMNPKFAES
notes: integrin β2 cytoplasmic tail, residues 724-769; also called full length integrin β2 CT; integrin β2 cytoplasmic tail; source: synthetic peptide, bought: GLBioChem (Shanghai), further purified by reverse phase HPLC
In the case of B2, the binding result in assay [2] is recorded as “binds”.
